This series is described as follows: soluble on expression in E. coli; label from the status in PepcDB or PDB records.
As for “MEVRFKIYRYNPEVDKKPYYDEYTVEVENEGVKVLTALELIKEQDPTLALRRSCREGVCGSDGMNINGKNRLACITSVGELKQPIKVNPLPGLPVIRDLIVDMKQFYKNYEKVKPYLINDDEPPVKERLQSPEDRAKLDGLYECILCACCTTSCPSFWWNPDKFIGPSGLLQAYRFIADSRDTATEQRLEDLKDPFSLFRCRTIMNCVSVCPKGLNPTEAIGKIRSALLKKNV”, the “soluble on expression in E. coli” value was “not soluble”.

In the case of “MGSDKIHHHHHHMKFMKSLEPLNNHDETAAGDAMRGPSGGGNSASILNEAENILRDYYGGAIESLFIERLVVGVFFTGVKLSNGCGGVAYTPPETIRNASRRILRGSPSAIRGKSADVVISGKIPSPFADVIRLAAINALSVPFFQDGRYDFEKSDDLSDVSHLFTGRRVCMVGAIVPLLKRFKKMGVSEIKVIDRKKDSQIEVELACGEFLSPEQTAETIAQCETAVFTGAAVANGTIEHLLRLVPKEAAVAVVGPTAGFIPDPLFRRNVALVGTAMVTDIAAALDIIAEGGGAYPLFGRCVKKINILNRKRIEQLKPGSKTA”, the “soluble on expression in E. coli” value is reported as “not soluble”.

Regarding “MNKLVCSTFAILAIIAISQVQSAVLPVSSKEVALITSSASTTSSSETSIDTLGSSRVKRQGGCGCCGCGCGCCGCGGGGGGGCGCCCCRPKCCCCCRRCCTCCRTCCCTRCCTCCRPCCCGCGCGCGCCGCGGGGRKRRSLQNLRIALANKIEGIAKVVKGSAVEASVMNALAPVNDATVEEKKDVIN”, the “soluble on expression in E. coli” value is recorded as “not soluble”. On to “MSLSGPRNQILVSITDAPKIHILDPSTEYCVGDYVAYQLNGVAPFMIKYEFNGIPLKSKERSSQFVRLASEPGIISITSLQDSSSQCIVDFTNPKLKSEFDDLSLNIHPIPSVTVSQGNYVTEDIREGDQAEVIFSFEGTPPFSLTYVRTEETDGKHGKRRSQVVETHKVTDIYSHEYKVITSLQGTYEAIEITDAYCFAKNDLFFNNEGHHHHHH”, for which the “soluble on expression in E. coli” value is “soluble”. The same measure for “MKSSLSLLLLTSALSNFALATEIKSGGETSTTKEGANAFSMPAANLPMAKRLDFSVGNSFFRNPWVPAPASTDARDGLGPLFNTNGCQNCHIKDGRGHPPEPNDTQAVSMLVRLSIPAVTEQQKAIYAVNGVVPEPTYGGQLQDFSLPDQKPEGRIHITYDEVVVTFADGTPVALRKPNLKILDLAYGEMHPDVQMSARVAPPMIGLGLLEAIPDATLLQWADPEDRDGDGISGRVNQVRDVRTGEMAIGRFGWKAGQPNIMQQNAAAFNGDLGLTSHLFPQENCTEKQTLCRDLPNGGSPEVSDNILDFVEFYAQHLAVPVRRNVQDPQVQLGEKLFAQAGCQSCHKTNVLTQELAERPALSKQRIQPYTDLLLHDMGEGLSDGRPEALASAREWRTAPLWGIGYTQEVNGHTYFLHDGRARNVLEAVLWHGGEAQASRDKVLQFDKAQREALVAFLNSL”: “not soluble”; for “MGENSLWNVYKTVSFWKVMKNFIIIQIARYTPCLSVKNWLYRTFLRMKVGKKTSFALMVMPDIMFPEKITVGENSIIGYNTTLLAHEYLIREYRLGEIVIGNEVMIGANVTILPGVKIGDGATVSAGTLVHRDVPSGAFVGGNPMRIIYTKEQMTAREGLEHHHHHH”: “not soluble”.

As for “DVKLVESGGGLVKPGRSLKLSCAASGFTFSDYYMFWVRQTPEQRLEWVATISDGGAYTYYPDSVKGRFTISRDNAKNNLYLQMNSLKSEDTGMYYCARDPLEYYGMDYWGQGTSVAVSSAKTTAPSVYPLAPVCGDTTGSSVTLGCLVKGYFPEPVTVTWNSGSLSSGVHTFPAVLQSDLYTLSSSVNVTSSTWPSQSITCNVAHPASSTKVDKKIVPR”, the “soluble on expression in E. coli” value is “soluble”. The same measure for “MGSDKIHHHHHHMITTWKHHETIEKAKRNAEQKIVSNVEHVEHIALVNQKRVLDAFKRKQVSEHHFTPSTGYGYDDLGRETLEAVYADVFGAETALVRPQIISGTHAIATVLFGLLRPGDELLYITGKPYDTLEEVIGIRGEEGGGSLKDFGITYHAVPLTAEQKVDKAAVKAAMNERTKVIGIQRSKGYADRPSFSINEIEQMVQFVKGINPNVIVFVDNCYGEFVEAKEPCHVGVDVIAGSLIKNPGGGIVKTGGYVAGKAPYVKQASYRLAAPGIGTEGGATLYSLLEMFQGLFLAPHVVSQAVKGAHFTAAFLDELGMRTSPRYDEQRTDLIQSVQFPDREKMIAFCQAIQAASPIDAHVTPQPSSMPGYEDPVIMAAGTFIQGASIELTADGPVRPPYIAYVQGGLTYEHVKLAVMQAADEMLSLETKGTPS”: “not soluble”; for “YHTEKTLPERTNEAAMSAAVVRGKLVWEQNNCVGCHTLLGEGAYFAPELGNVVGRRGGEEGFNTFLQAWMNIQPLNVPGRRAMPQFHLSEGQVDDLAEFLKWSSKIDTNQWPPNKEG”: “not soluble”. The same measure for “MNKIRYPAVAGLFYPSHPDELIDMIEQCYLHKFGPKSMPVHGTYEKPIGLLCPHAGYVYSGPIQAHSYYELSKRVDALEETTVVILGPNHTGLGSGVSVMDGIWRTPLGDVKCDEEFVEELWRKCEIVDLDETAHLNEHSIEVQLPFLKHLELLNIAKFKIVPICMMFQDYETAVEVGYFIAKIAKELNRRIVVIASSDLTHYEPQEIASKKDAIVIKDILEMNEKELYEDVVNYNISMCGYGPVIAMLKAMKTLGAEKAKLLAYATSGDITGDYSAVVGYASAIVELEHHHHHH”: “soluble”. The same measure for “KKLLLIGAGRISYYLLNILKNNRIKVKLIEQKMDRAQTFSQVFPEVSVILGDGTAKDLLLEESAASYDAVATLTGVDEENIITSMFLESLGVHKNITKVNRTSLLEIVDTRETTTIVTPKSIAVDTVMHFVRGHYNA”: “not soluble”; for “MGSDKIHHHHHHMIDITDKQSCCGCSSCVQKCPRQCISLHEDTEGFLYPVVDKGDCIDCGLCEKVCPLLHWGEALVPMEVLAVKNKNQEERIHSSSGGVFIALSRQIIMDGGVVFGAVYDENWEVRITYSETLDGVRPMMGSKYLQARVETGFADAERFLKQGRYVLFSGTPCQIAGLHKYLRKDYPNLLSVDFLCHGVPSPGVWRRYLKETMSDLQSARRAAAGKNTVFPSLNVMPTIVGIEFRDKTLHGWKKYSFVVRGKSAFNADKNSVLLSDIHRENPFMRGFLSDIYLRPSCYECKCKNGVSHSDLTIADFWGIDRLMPDFDDDKGIGLALVNTVKGKQIFKRLSIDIRLSALSDVVALNGGFKEYRQPHPARLVFFRRFAVGETVESIVEDILRVPLWRRVMRNIKTFCKMIINRKQLTIIPLFIRRSKKRDK”: “not soluble”; for “MLNETIQKEFQRKEIKYLIEADTFEQLQKEFKDYLTPDRFTHSSITNIYFDNPDFQLIKDSINHRHASEKIRMRTYDPKPTQKSQAFLEIKKKEYQGEQEIGYKYRLTSTPLSLCNYVQQGIIDNNIKQDDRANHELAILRERYKKLVPKMFIHYERFSLRGIENPKLRVTFDRNVIYRHENVNLTSGFNGYPLLKNNQIVMEIKVKNGLPAWMEKIFHKHQLIPQSFSKYTTAYLKAYGLTPEDIREEPTSIALEHHHHHH”: “soluble”. Consider “MSNKDIRVVVGMSGGVDSSVTAYLLKEQGYDVIGIFMKNWDDTDENGVCTATEDYNDVIAVCNQIGIPYYAVNFEEQYWDKVFTYFLDEYKKGRTPNPDVMCNKEIKFKAFLEHALKLGADYVATGHYARIRRHDDGHVEMLRGVDNNKDQTYFLNQLSQEQLSKVMFPIGDIEKSEVRRIAEEQNLATAKKKDSTGICFIGERNFKEFLSHYLPAQSGEMLTLNGKKMGQHSGLMYYTIGQRHGLGIGGDGDPWFVVGKNLNDNVLYVEQGFHHDALYSDYLIASDYSFVNPSEIDLEKGFECTAKFRYRQKDTKVYVQRENENSIRVTFAEPVRAITPGQAVVFYNQEVCLGGATIDDVYKNEGQLSYVVLEHHHHHH”, for which the “soluble on expression in E. coli” value is on record as “soluble”. As for “MLPMQLPFQRARRLCLRAALAAIASAAHADDGTIVITGTITDTTCVIEDPAGPTHTKVVQLPKISKSALAKDGDEAGRTPFLITLKNCPSSLNNGVKAYFEPGPTTDYATGDLKAYSIAYNNNPATTQNAIIAASEAQGVQIRISNQNGTKIPMGVDAAAQNAQAFNPVTDTADNAKKKVTLRYLASYVKKSGNITTGQLTTYVGFSMIYP”, the entry is “not soluble”. The same measure for “MSLASIRTRIMILSDTHAQRFQPGLEPLEPVDLVIHCGDLTNNSTLRDYREAIHLLDSIKAPLKIVIAGNHDFSLDDKAYRRKIRETCRINQENLSGAIKAEYGQVGEAQQILLEAVAKGITFLSEGPHQLQLPSNSVLELYVSPYTPTHNCPGWGFQYDGIHDFNIKQGTDIVITHGPPLGIMDLTSNNERIGCPQLFAAVARAQPRVHCFGHVHEGWGAKLVSWRPNEGHHHHHH”: “not soluble”; for “MFQKILIANRGEIAVRIMKTCQKLGIRTVAIYSEADENALHVKMANEAYLVGGPRVQESYLNLEKIIEIAKKTNAEAIHPGYGLLSENPSFPVRCKEEGIVFIGPSEEIITKMGSKIESRIAMQAADVPVVPGITTNIETAEEAIEIAKQIGYPLMLKASAGGGGIGMQLMETEQTLTKAFESNKTRAQNFFGNGEMYLERYIADAHHIEIQLLADTHGNTVYLWERECSVQRRNQKVIEEAPSPFLDEGTRKAMGEIAVQAAKALGYTNAGTVEFLVDEQKNFYFLEMNTRLQVEHPVTEEITGLDLVEQQLLIAYGEKLSFTQDDIKRSGHAIEARIYAEDPKTFFPSPGKITDLTLPTNVRIDHFLENQVTITPFYDPMIAKVIAHGETREEAISKLHDALEELKVEGIKTNTPMLLQVLEDDVFKSGIYTTGFVTKQLVKK”: “not soluble”. Regarding “MHIGQFTRQYPAETAFKVQSNPWKNSPEPFLPMSTQQPKSWADVGKVAGPPRNYHHPYEVKPFEAIDEKNDVFSTMGHWNSEQKQSRQQHQQYQQNQYQARQHQYYQNPPPFYQPEQPVHYQSAQQDVFDNIGEWDNSTPIPSQISPLQLDLTLTTPLPTFQPYPSTRSYSLESPTTSVTSNEEKNSWKTIELILNQKSSRSPSITERLSPVDFGPWTSNL”, the “soluble on expression in E. coli” value is reported as “not soluble”. On to “VSNKTYYLVGTSHISENSVKLVKEVIERVQPDTVSIELDKKRYEKYTNSNQWGNTDIIKIIKEKKLVVLISNIVYSAYQKKLANTKGTTQAGELIQAIKSAKEIGANIQLIDRDIQVTFKRMWRHLSFLEKPKLFMTFFTEFDDIEQDKLEEYLESDSFDKVFISLSKKYPSLYQDMITDRDKYMSTKLKNNSSQVNVVVVGKAHMKGIKEKLEKRTEFSL”, for which the “soluble on expression in E. coli” value is reported as “not soluble”. As for “MGSDKIHHHHHHMIFDGYEAYRAANFKPKVCILGSGPAGTTIARKLGAAGIPVVVLEAGSREFSDESQDFYRGTKVGDFYFDLDITRLRYMGGSSNHWAGWCRVLDKLDFEPKAWAPDTGWPIRRADIEPYLTEVRDILELPDFRPDVPISDDIRWVQLIKSPAVRFAEKFADELDKSGNIAVVLNTYATELAGDGKRVTGAKLWSNGQDAGAFSADYFIVCTGGLENSRLLLWSNQRSNGGVVPNATALGRYWMEHPTFEGGNAILADYGEFEVDAVNEAFFSPTLAAMERLRIMNFGIRLIETPYAGVKHVIADLACTAPDMAEWVAYQLSQNLRCAAQLYVAWEQAPLASNQIELSKTDVDHAGVPRIELHWKKSELERRTLVEGLKLFGTTLIEKDLGRVRLMDWIANGEDYPTDEETAGHHHMGGTRMGIDMTRSVVDANCKVHGMDNLYVGGSSVFCTSGQANPTTTITALACRLGEHLSKVVAV”, the “soluble on expression in E. coli” value is “not soluble”. “MDSDRLSSVEQFPDRGNNHVEEGSAIDYQRVPPLSGTHYASTVSAGFYEATPLLGSLVHTLEHGAVIVYYDPDEISPEARQSLREFSSVHTGTWRSVVAVPNPNDDPRATYVVTAWQHELTIDSYDAETVHAFLSEYLGRGPENPVRLEHHHHHH”: the “soluble on expression in E. coli” value is “not soluble”.

Source of the values: the DeepSol protein solubility set.
